Non-standard residues stand in square brackets, D forms with d. Phe(3-Me) = Cc1cccc(C[C@H](N)C(=O)O)c1; Phe(2-Me) = Cc1ccccc1C[C@H](N)C(=O)O; Cha = N[C@@H](CC1CCCCC1)C(=O)O; Aib = CC(C)(N)C(=O)O
T1: human Y2 receptor (human, UniProt P49146 1-381)
T1 sequence (looked up): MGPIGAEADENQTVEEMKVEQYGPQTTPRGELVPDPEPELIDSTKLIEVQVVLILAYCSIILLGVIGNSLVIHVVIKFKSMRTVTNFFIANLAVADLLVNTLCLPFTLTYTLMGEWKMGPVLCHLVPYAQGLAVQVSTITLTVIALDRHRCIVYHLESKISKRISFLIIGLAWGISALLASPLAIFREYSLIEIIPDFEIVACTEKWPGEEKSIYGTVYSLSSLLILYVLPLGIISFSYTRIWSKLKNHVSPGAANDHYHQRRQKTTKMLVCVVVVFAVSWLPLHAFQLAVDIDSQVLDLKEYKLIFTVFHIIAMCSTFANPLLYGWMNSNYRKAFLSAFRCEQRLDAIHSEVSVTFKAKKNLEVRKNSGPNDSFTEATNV

B1: [(1S)-5-Amino-1-carboxypentyl]carbamoyl-[D-Pro24, Cha27,28,36, Aib31]-PYY(23-36) (peptide)
peptide: {((1S)-5-amino-1-carboxypentyl)carbamoyl}-S[dP]RH[Cha][Cha]NL[Aib]TRQR[Cha]-NH2
notes: calculated mass 1980.2 fits the name; also called compound No. 323
B2: Ac-[D-Pro24, Phe26, Cha27,36, Aib28,31, Lys30]-PYY(23-36) (peptide)
peptide: Ac-S[dP]RF[Cha][Aib]NK[Aib]TRQR[Cha]-NH2
SMILES: CC(=O)N[C@@H](CO)C(=O)N1CCC[C@@H]1C(=O)N[C@@H](CCCNC(=N)N)C(=O)N[C@@H](Cc1ccccc1)C(=O)N[C@@H](CC1CCCCC1)C(=O)NC(C)(C)C(=O)N[C@@H](CC(N)=O)C(=O)N[C@@H](CCCCN)C(=O)NC(C)(C)C(=O)N[C@H](C(=O)N[C@@H](CCCNC(=N)N)C(=O)N[C@@H](CCC(N)=O)C(=O)N[C@@H](CCCNC(=N)N)C(=O)N[C@@H](CC1CCCCC1)C(N)=O)[C@@H](C)O
notes: also called compound No. 345
B3: Ac-[D-Pro24, Gln26, Cha27,36, Aib28,31, Lys30]-PYY(23-36) (peptide)
peptide: Ac-S[dP]RQ[Cha][Aib]NK[Aib]TRQR[Cha]-NH2
SMILES: CC(=O)N[C@@H](CO)C(=O)N1CCC[C@@H]1C(=O)N[C@@H](CCCNC(=N)N)C(=O)N[C@@H](CCC(N)=O)C(=O)N[C@@H](CC1CCCCC1)C(=O)NC(C)(C)C(=O)N[C@@H](CC(N)=O)C(=O)N[C@@H](CCCCN)C(=O)NC(C)(C)C(=O)N[C@H](C(=O)N[C@@H](CCCNC(=N)N)C(=O)N[C@@H](CCC(N)=O)C(=O)N[C@@H](CCCNC(=N)N)C(=O)N[C@@H](CC1CCCCC1)C(N)=O)[C@@H](C)O
notes: also called compound No. 221
B4: Ac-[Glu23, D-Pro24, Cha27,28, Lys30, Aib31, Phe(3Me)36]-PYY(23-36) (peptide)
peptide: Ac-E[dP]RH[Cha][Cha]NK[Aib]TRQR[Phe(3-Me)]-NH2
SMILES: CC(=O)N[C@@H](CCC(=O)O)C(=O)N1CCC[C@@H]1C(=O)N[C@@H](CCCNC(=N)N)C(=O)N[C@@H](Cc1c[nH]cn1)C(=O)N[C@@H](CC1CCCCC1)C(=O)N[C@@H](CC1CCCCC1)C(=O)N[C@@H](CC(N)=O)C(=O)N[C@@H](CCCCN)C(=O)NC(C)(C)C(=O)N[C@H](C(=O)N[C@@H](CCCNC(=N)N)C(=O)N[C@@H](CCC(N)=O)C(=O)N[C@@H](CCCNC(=N)N)C(=O)N[C@@H](Cc1cccc(C)c1)C(N)=O)[C@@H](C)O
notes: also called compound No. 259
B5: Ac-[Glu23, D-Pro24, Cha27,28, Lys30, Aib31, Phe(2Me)36]-PYY(23-36) (peptide)
peptide: Ac-E[dP]RH[Cha][Cha]NK[Aib]TRQR[Phe(2-Me)]-NH2
SMILES: CC(=O)N[C@@H](CCC(=O)O)C(=O)N1CCC[C@@H]1C(=O)N[C@@H](CCCNC(=N)N)C(=O)N[C@@H](Cc1c[nH]cn1)C(=O)N[C@@H](CC1CCCCC1)C(=O)N[C@@H](CC1CCCCC1)C(=O)N[C@@H](CC(N)=O)C(=O)N[C@@H](CCCCN)C(=O)NC(C)(C)C(=O)N[C@H](C(=O)N[C@@H](CCCNC(=N)N)C(=O)N[C@@H](CCC(N)=O)C(=O)N[C@@H](CCCNC(=N)N)C(=O)N[C@@H](Cc1ccccc1C)C(N)=O)[C@@H](C)O
notes: also called compound No. 256
B6: Ac-[D-Pro24, Tyr26, Cha27,36, Aib28,31, Lys30]-PYY(23-36) (peptide)
peptide: Ac-S[dP]RY[Cha][Aib]NK[Aib]TRQR[Cha]-NH2
SMILES: CC(=O)N[C@@H](CO)C(=O)N1CCC[C@@H]1C(=O)N[C@@H](CCCNC(=N)N)C(=O)N[C@@H](Cc1ccc(O)cc1)C(=O)N[C@@H](CC1CCCCC1)C(=O)NC(C)(C)C(=O)N[C@@H](CC(N)=O)C(=O)N[C@@H](CCCCN)C(=O)NC(C)(C)C(=O)N[C@H](C(=O)N[C@@H](CCCNC(=N)N)C(=O)N[C@@H](CCC(N)=O)C(=O)N[C@@H](CCCNC(=N)N)C(=O)N[C@@H](CC1CCCCC1)C(N)=O)[C@@H](C)O
notes: also called compound No. 346
B7: Ac-[D-Pro24, Trp26, Cha27,36, Aib28,31, Lys30]-PYY(23-36) (peptide)
peptide: Ac-S[dP]RW[Cha][Aib]NK[Aib]TRQR[Cha]-NH2
SMILES: CC(=O)N[C@@H](CO)C(=O)N1CCC[C@@H]1C(=O)N[C@@H](CCCNC(=N)N)C(=O)N[C@@H](Cc1c[nH]c2ccccc12)C(=O)N[C@@H](CC1CCCCC1)C(=O)NC(C)(C)C(=O)N[C@@H](CC(N)=O)C(=O)N[C@@H](CCCCN)C(=O)NC(C)(C)C(=O)N[C@H](C(=O)N[C@@H](CCCNC(=N)N)C(=O)N[C@@H](CCC(N)=O)C(=O)N[C@@H](CCCNC(=N)N)C(=O)N[C@@H](CC1CCCCC1)C(N)=O)[C@@H](C)O
notes: also called compound No. 347

molecular target: T1, human Y2 receptor; test: cell-based or functional assay

GBA EC50 Ratio ([35S]GTPγS binding) | Binder
0.95 EC50 compound/EC50 PYY(3-36) | B1
1.4 EC50 compound/EC50 PYY(3-36) | B2
1.4 EC50 compound/EC50 PYY(3-36) | B3
0.93 EC50 compound/EC50 PYY(3-36) | B4
1.2 EC50 compound/EC50 PYY(3-36) | B5
1.3 EC50 compound/EC50 PYY(3-36) | B6
1.3 EC50 compound/EC50 PYY(3-36) | B7

molecular target: T1, human Y2 receptor; test: RBA: displacement of [125I]-PYY from hY2R/CHO membranes
Protocol: After incubation at room temperature for 60 minutes, the mixture was filtered through the cell harvester FilterMate (PerkinElmer) using UniFilter-96 GF/C treated with polyethylenimine (PEI) solution (20 mM Tris, 0.3% PEI, pH 7.4), and the filter was washed 3 times with a filtering buffer (50 mM Tris, 5 mM MgCl₂, 150 mM NaCl, 0.03% NaN₃, 0.05% CHAPS, pH 7.4). Thereafter, UniFilter-96 GF/C was dried in a mechanical drier for 1 hour, 15 μl of the liquid scintillator MicroScint O (PerkinElmer) was added to each well, and a measurement was taken using TopCount (PerkinElmer). The data obtained were analyzed using Prism to calculate the IC₅₀ value.

IC50 Ratio | Binder
1.3 IC50 compound/IC50 PYY(3-36) | B1
1.1 IC50 compound/IC50 PYY(3-36) | B2
3.1 IC50 compound/IC50 PYY(3-36) | B3
1.1 IC50 compound/IC50 PYY(3-36) | B4
1.7 IC50 compound/IC50 PYY(3-36) | B5
1 IC50 compound/IC50 PYY(3-36) | B6
0.76 IC50 compound/IC50 PYY(3-36) | B7

— patent US20120172293A1 (Takeda / Millennium, published 2012)
